Blank lines part the entries; values can stand above or below the binder they belong to.
B3: GST-KIF1C stalk 674-922 (domain or fragment, human, UniProt O43896 674-922, looked up)
chain: SDSGDDSDKRSCEESWRLISSLREQLPPTTVQTIVKRCGLPSSGKRRAPRRVYQIPQRRRLQGKDPRWATMADLKMQAVKEICYEVALADFRHGRAEIEALAALKMRELCRTYGKPDGPGDAWRAVARDVWDTVGEEEGGGAGSGGGSEEGARGAEVEDLRAHIDKLTGILQEVKLQNSSKDRELQALRDRMLRMERVIPLAQDHEDENEEGGEVPWAPPEGSEAAEEAAPSDRMPSARPPSPPLSSWE
notes: KIF1C, human, residues 674-922; Based on the original GST–KIF1C stalk plasmid; also called KIF1CS^2; KIF1CS^674–922; source: E. coli SoluBL21, purified (Ni-NTA, SEC); not shown: GST, N-terminal, kept

Legend:
[1] = molecular target: T1, full-length FTS–HOOK3–FHIP1B complex (human, UniProt Q86VS8 1-718; Q9H8T0 1-292; Q8N612 1-972); assay: mass photometry; full-length FHF with KIF1C stalk, 100 nM in GF150, Refeyn TwoMP; conditions: both partners purified
T1 construct: HOOK3, human, full length; FTS, human, full length; FHIP1B, human, full length; SEC-MALS gave ~304 kDa for the full-length complex; also called FHF; full-length FHF; source: Sf9, co-expressed, purified (Strep-Tactin, PreScission, SEC); not shown: Strep II, N-terminal, cleaved; copies: 2 + +

GST-KIF1C stalk 674-922 = molecular target: B3; assay: cross-linking; cross-linking mass spectrometry; 10 mM EDC or 5 mM DSSO, room temperature, 60 min; full-length FHF or FH^571-718F with KIF1C stalk 674-922; conditions: both partners purified
[2] = molecular target: the molecule itself; assay: cryo-EM structure; FTS, FHIP1B and HOOK3 571–718, co-expressed in Sf9 and purified as one complex; 3.2 Å; 0.9 mg/ml with 0.1% CHAPSO or 0.005% Igepal
[3] = molecular target: T2, full-length HOOK3 (of FHF co-expression) (human, UniProt Q86VS8 1-718); assay: cross-linking; cross-linking mass spectrometry; 10 mM EDC or 5 mM DSSO, room temperature, 60 min; full-length FHF or FH^571-718F with KIF1C stalk 674-922; conditions: both partners purified
T2 construct: HOOK3, human, full length; gene codon optimized for Sf9; Captured on Strep-Tactin by the tag, then released with PreScission protease before gel filtration; source: Sf9, co-expressed with FTS and FHIP1B or FHIP2A, purified (Strep-Tactin, PreScission, SEC); not shown: Strep II, N-terminal, cleaved
T2 sequence (looked up): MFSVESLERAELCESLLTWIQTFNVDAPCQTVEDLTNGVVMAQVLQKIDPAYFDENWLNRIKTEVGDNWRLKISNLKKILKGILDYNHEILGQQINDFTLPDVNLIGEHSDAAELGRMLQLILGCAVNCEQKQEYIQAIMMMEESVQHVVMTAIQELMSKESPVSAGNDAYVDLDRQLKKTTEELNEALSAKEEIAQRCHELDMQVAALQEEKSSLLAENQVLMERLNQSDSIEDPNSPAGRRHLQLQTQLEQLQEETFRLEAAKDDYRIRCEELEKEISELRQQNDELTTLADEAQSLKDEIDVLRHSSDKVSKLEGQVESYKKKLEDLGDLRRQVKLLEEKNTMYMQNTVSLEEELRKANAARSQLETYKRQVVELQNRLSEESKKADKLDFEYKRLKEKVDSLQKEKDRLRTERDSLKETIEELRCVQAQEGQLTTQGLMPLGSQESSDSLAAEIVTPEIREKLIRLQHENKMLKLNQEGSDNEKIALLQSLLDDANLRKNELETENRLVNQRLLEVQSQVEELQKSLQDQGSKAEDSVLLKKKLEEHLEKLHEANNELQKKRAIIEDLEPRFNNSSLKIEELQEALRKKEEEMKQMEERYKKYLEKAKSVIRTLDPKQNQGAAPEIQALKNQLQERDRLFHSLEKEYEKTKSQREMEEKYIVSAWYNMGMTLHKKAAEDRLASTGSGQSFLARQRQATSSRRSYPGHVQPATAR

[4] = molecular target: T3, C-terminal HOOK3 (residues 451–718) (human, UniProt Q86VS8 451-718); assay: cryo-EM structure; FH^451–718F with GST-KIF1C stalk 674–922; 4.8 Å, low resolution at the KIF1C stalk density; no atomic model; conditions: both partners purified
T3 construct: also called H^C; source: Sf9, co-expressed with FTS and FHIP1B, purified (Strep-Tactin, PreScission, SEC); not shown: Strep II, N-terminal, cleaved
T3 sequence (looked up): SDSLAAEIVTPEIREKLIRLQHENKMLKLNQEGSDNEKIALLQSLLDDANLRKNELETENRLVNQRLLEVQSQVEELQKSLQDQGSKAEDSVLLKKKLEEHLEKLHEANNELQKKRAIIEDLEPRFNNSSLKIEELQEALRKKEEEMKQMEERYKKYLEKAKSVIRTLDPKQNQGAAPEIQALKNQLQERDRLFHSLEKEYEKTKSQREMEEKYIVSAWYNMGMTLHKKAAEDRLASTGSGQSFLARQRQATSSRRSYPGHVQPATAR

[5] = molecular target: T4, KIF1C–GFP (full-length KIF1C fused to a C-terminal eGFP) (human, UniProt O43896 1-1103); assay: single-molecule TIRF microscopy, co-movement on microtubules; 200 nM TMR–dynein, 200 nM dynactin, 1,600 nM labeled adapter and 180 nM KIF1C-GFP mixed at ~75 mM KCl, on ice 45–60 min, diluted 1:20 or 1:40; biotin-microtubules held on the coverslip; 25 °C; conditions: both partners purified
T4 construct: kinesin-3 KIF1C, human, full length (residues up to 1103 are named); also called KFL; KFL–GFP; not shown: eGFP, C-terminal, kept
T4 sequence (looked up): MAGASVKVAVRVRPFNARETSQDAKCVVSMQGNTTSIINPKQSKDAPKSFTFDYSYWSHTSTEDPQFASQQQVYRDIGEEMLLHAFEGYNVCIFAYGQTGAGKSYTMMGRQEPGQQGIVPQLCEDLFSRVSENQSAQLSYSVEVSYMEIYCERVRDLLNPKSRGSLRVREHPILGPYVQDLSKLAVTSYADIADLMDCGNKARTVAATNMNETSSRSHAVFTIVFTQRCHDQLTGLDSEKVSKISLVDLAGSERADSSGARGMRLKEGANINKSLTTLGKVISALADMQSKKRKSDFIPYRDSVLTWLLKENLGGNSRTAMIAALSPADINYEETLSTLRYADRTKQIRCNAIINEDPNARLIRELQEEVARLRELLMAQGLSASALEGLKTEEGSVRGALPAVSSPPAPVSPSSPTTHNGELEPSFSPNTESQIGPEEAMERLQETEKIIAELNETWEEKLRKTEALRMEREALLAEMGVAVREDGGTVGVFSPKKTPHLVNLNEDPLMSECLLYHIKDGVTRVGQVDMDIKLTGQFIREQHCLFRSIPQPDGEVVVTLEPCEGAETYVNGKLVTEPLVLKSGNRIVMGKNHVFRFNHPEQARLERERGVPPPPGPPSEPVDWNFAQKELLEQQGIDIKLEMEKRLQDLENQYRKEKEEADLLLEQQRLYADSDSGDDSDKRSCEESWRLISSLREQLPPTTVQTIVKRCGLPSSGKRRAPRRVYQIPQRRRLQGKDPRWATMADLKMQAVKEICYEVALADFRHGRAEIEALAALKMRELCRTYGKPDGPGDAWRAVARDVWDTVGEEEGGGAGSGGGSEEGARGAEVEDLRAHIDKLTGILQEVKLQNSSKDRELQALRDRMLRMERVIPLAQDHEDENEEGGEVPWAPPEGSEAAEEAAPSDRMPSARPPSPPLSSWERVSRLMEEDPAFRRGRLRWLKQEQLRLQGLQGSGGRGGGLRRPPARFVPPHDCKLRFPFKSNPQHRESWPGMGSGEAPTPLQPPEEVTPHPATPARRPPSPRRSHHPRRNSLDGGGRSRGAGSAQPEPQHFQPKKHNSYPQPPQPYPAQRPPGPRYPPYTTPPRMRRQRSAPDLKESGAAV

T1 sequence (Q9H8T0 whole entry, chain 2 of 2): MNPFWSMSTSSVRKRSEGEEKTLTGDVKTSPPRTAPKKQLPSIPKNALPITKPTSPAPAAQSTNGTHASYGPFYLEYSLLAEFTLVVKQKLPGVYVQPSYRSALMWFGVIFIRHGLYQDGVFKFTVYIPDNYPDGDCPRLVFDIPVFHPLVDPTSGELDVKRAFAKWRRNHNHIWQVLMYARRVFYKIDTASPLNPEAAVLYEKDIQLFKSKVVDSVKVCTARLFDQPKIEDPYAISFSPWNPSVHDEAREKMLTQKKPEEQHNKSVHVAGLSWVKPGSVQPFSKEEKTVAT
T1 sequence (Q8N612 whole entry, chain 3 of 2): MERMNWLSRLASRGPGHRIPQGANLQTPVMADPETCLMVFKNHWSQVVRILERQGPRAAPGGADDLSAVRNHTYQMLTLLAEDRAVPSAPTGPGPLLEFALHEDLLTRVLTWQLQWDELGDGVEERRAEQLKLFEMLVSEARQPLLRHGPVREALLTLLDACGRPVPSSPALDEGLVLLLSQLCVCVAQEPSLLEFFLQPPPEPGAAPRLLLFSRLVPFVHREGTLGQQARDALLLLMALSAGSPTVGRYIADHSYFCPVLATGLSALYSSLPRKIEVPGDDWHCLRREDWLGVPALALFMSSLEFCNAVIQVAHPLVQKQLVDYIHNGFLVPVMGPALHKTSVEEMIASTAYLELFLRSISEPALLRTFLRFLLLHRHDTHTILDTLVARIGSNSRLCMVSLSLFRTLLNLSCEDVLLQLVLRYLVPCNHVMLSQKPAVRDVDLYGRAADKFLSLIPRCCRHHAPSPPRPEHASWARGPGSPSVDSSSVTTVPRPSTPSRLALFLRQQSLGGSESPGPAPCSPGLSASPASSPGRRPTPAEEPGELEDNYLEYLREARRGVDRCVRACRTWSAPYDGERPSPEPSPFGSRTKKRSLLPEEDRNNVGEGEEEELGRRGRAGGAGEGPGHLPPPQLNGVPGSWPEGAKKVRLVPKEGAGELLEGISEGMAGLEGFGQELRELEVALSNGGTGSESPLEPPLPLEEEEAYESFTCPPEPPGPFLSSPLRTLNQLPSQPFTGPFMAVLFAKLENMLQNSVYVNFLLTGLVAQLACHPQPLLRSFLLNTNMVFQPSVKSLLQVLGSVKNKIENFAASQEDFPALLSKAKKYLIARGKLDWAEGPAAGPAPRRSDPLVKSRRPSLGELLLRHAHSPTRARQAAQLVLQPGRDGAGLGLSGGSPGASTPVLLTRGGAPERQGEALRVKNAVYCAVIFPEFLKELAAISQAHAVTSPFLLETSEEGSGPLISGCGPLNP

B1: GST–KIF1C stalk (residues 642–922) (domain or fragment, human, UniProt O43896 642-922, looked up)
chain: EMEKRLQDLENQYRKEKEEADLLLEQQRLYADSDSGDDSDKRSCEESWRLISSLREQLPPTTVQTIVKRCGLPSSGKRRAPRRVYQIPQRRRLQGKDPRWATMADLKMQAVKEICYEVALADFRHGRAEIEALAALKMRELCRTYGKPDGPGDAWRAVARDVWDTVGEEEGGGAGSGGGSEEGARGAEVEDLRAHIDKLTGILQEVKLQNSSKDRELQALRDRMLRMERVIPLAQDHEDENEEGGEVPWAPPEGSEAAEEAAPSDRMPSARPPSPPLSSWE
notes: KIF1C, human, amino acids 642-922 (CC2, stalk globular domain, CC3); A tandem TEV site lies between GST and KIF1C; also called KS; GST-tagged KIF1C stalk; source: E. coli SoluBL21, purified (Ni-NTA, SEC); not shown: GST, N-terminal, kept
stoichiometry N [1]: 1 dimeric KIF1C stalk per FHF

Binder: B3
binding result [3]: binds
binding result [4]: binds

Second part, led by results:

binding result (GST-KIF1C stalk 674-922): binds
B2: C-terminal HOOK3 fragment (residues 571–718) (domain or fragment, human, UniProt Q86VS8 571-718, looked up)
chain: DLEPRFNNSSLKIEELQEALRKKEEEMKQMEERYKKYLEKAKSVIRTLDPKQNQGAAPEIQALKNQLQERDRLFHSLEKEYEKTKSQREMEEKYIVSAWYNMGMTLHKKAAEDRLASTGSGQSFLARQRQATSSRRSYPGHVQPATAR
notes: gene codon optimized for Sf9; Captured on Strep-Tactin by the tag, then released with PreScission protease before gel filtration; Two copies form the coiled coil in the structure; source: Sf9, co-expressed with FTS and FHIP1B or FHIP2A, purified (Strep-Tactin, PreScission, SEC); not shown: Strep II, N-terminal, cleaved
binding result [2]: binds

binding result [5]: binds
B4: HOOK3-SNAPf labeled with Alexa-647 (natural protein, human, UniProt Q86VS8 1-718, looked up)
chain: MFSVESLERAELCESLLTWIQTFNVDAPCQTVEDLTNGVVMAQVLQKIDPAYFDENWLNRIKTEVGDNWRLKISNLKKILKGILDYNHEILGQQINDFTLPDVNLIGEHSDAAELGRMLQLILGCAVNCEQKQEYIQAIMMMEESVQHVVMTAIQELMSKESPVSAGNDAYVDLDRQLKKTTEELNEALSAKEEIAQRCHELDMQVAALQEEKSSLLAENQVLMERLNQSDSIEDPNSPAGRRHLQLQTQLEQLQEETFRLEAAKDDYRIRCEELEKEISELRQQNDELTTLADEAQSLKDEIDVLRHSSDKVSKLEGQVESYKKKLEDLGDLRRQVKLLEEKNTMYMQNTVSLEEELRKANAARSQLETYKRQVVELQNRLSEESKKADKLDFEYKRLKEKVDSLQKEKDRLRTERDSLKETIEELRCVQAQEGQLTTQGLMPLGSQESSDSLAAEIVTPEIREKLIRLQHENKMLKLNQEGSDNEKIALLQSLLDDANLRKNELETENRLVNQRLLEVQSQVEELQKSLQDQGSKAEDSVLLKKKLEEHLEKLHEANNELQKKRAIIEDLEPRFNNSSLKIEELQEALRKKEEEMKQMEERYKKYLEKAKSVIRTLDPKQNQGAAPEIQALKNQLQERDRLFHSLEKEYEKTKSQREMEEKYIVSAWYNMGMTLHKKAAEDRLASTGSGQSFLARQRQATSSRRSYPGHVQPATAR
modifications: Alexa-647 on the SNAP tag
notes: HOOK3, human, amplified from a human cDNA library from the start codon to the last codon; also called HOOK3-Alexa 647; source: Sf9, purified (Ni-NTA, IgG Sepharose, cut off the beads with TEV protease); not shown: 8xHis, N-terminal, cleaved; ZZ, N-terminal, cleaved; SNAPf, C-terminal, kept
